Results: the Human Domainome abundance scans (Beltran et al. 2025)
± gives the uncertainty stated by the source.

B1: Androgen receptor, residues 557 to 632; numbered along this chain, P10275 (parent)
chain: QKTCLICGDEASGCHYGALTCGSCKVFFKRAAEGKQKYLCASRNDCTIDKFRRKNCPSCRLRKCYEAGMTLGARKL

Variants of: B1
Assay: abundance fitness (aPCA) (normalised: wild type 0, dead -1); higher = more abundant; growth selection in yeast, the domain comes from the species named
Conditions: Homo sapiens

Row | Variant | abundance fitness
1 | QKTCLICGDEASGCHYGALTCGSCKVFFKRAAEGKQKYLCASRNDCTIDKFYRKNCPSCRLRKCYEAGMTLGARKL | -0.09 ± 0.068
2 | QKTCLICGDEASGCHYGALTCGSCKVFFKRAAEGKQKYLCASRNDCTIDKFWRKNCPSCRLRKCYEAGMTLGARKL | -0.311 ± 0.16
3 | QKTCLICGDEASGCHYGALTCGSCKVFFKRAAEGKQKYLCASRNDCTIDKFVRKNCPSCRLRKCYEAGMTLGARKL | 0.041 ± 0.057
4 | QKTCLICGDEASGCHYGALTCGSCKVFFKRAAEGKQKYLCASRNDCTIDKFRRKNCDSCRLRKCYEAGMTLGARKL | 0.1 ± 0.069
5 | QKTCLICGDEASGCHYGALTCGSCKVFFKRAAEGKQKYLCASRNDCTIDKFRRKNCTSCRLRKCYEAGMTLGARKL | -0.111 ± 0.079
6 | QKTCLICGDEASGCHYGALTCGSCKVFFKRAAEGKQKYLCASRNDCTIDKFRRKNCYSCRLRKCYEAGMTLGARKL | -0.03 ± 0.051
7 | QKTCLICGDEASGCHYGALTCGSCKVFFKRAAEGKQKYLCASRNDCTIDKFRRKNCRSCRLRKCYEAGMTLGARKL | -0.1 ± 0.057
8 | QKTCLICGDEASGCHYGALTCGSCKVFFKRAAEGKQKYLCASRNDCTIDKFRRKNCESCRLRKCYEAGMTLGARKL | 0.044 ± 0.11
9 | QKTCLICGDEASGCHYGALTCGSCKVFFKRAAEGKQKYLCASRNDCTIDKFRRKNCQSCRLRKCYEAGMTLGARKL | -0.095 ± 0.078
10 | QKTCLICGDEASGCHYGALTCGSCKVFFKRAAEGKQKYLCASRNDCTIDKFRRKNCLSCRLRKCYEAGMTLGARKL | -0.075 ± 0.063
11 | QKTCLICGDEASGCHYGALTCGSCKVFFKRAAEGKQKYLCASRNDCTIDKFRRKNCWSCRLRKCYEAGMTLGARKL | 0 ± 0.13
12 | QKTCLICGDEASGCHYGALTCGSCKVFFKRAAEGKQKYLCASRNDCTIDKFRRKNCHSCRLRKCYEAGMTLGARKL | 0.02 ± 0.07
13 | QKTCLICGDEASGCHYGALTCGSCKVFFKRAAEGKQKYLCASRNDCTIDKFRRKNCASCRLRKCYEAGMTLGARKL | -0.011 ± 0.06
14 | QKTCLICGDEASGCHYGALTCGSCKVFFKRAAEGKQKYLCASRNDCTIDKFRRKNCISCRLRKCYEAGMTLGARKL | -0.167 ± 0.087
15 | QKTCLICGDEASGCHYGALTCGSCKVFFKRAAEGKQKYLCASRNDCTIDKFRRKNCVSCRLRKCYEAGMTLGARKL | -0.037 ± 0.072
16 | QKTCLICGDEASGCHYGALTCGSCKVFFKRAAEGKQKYLCASRNDCTIDKFRRKNCMSCRLRKCYEAGMTLGARKL | -0.09 ± 0.1
17 | QKTCLICGDEASGCHYGALTCGSCKVFFKRAAEGKQKYLCASRNDCTIDKFRRKNCCSCRLRKCYEAGMTLGARKL | 0.088 ± 0.062
18 | QKTCLICGDEASGCHYGALTCGSCKVFFKRAAEGKQKYLCASRNDCTIDKFRRKNCKSCRLRKCYEAGMTLGARKL | -0.043 ± 0.11

Row | Variant | abundance fitness
19 | QKTCLICGDEASGCHYGALTCGSCKVFFKRAAEGKQKYLCASRNDCTIDKFRRKNCFSCRLRKCYEAGMTLGARKL | -0.024 ± 0.069
20 | QKTCLICGDEASGCHYGALTCGSCKVFFKRAAEGKQKYLCASRNDCTIDKFRRKVCPSCRLRKCYEAGMTLGARKL | -0.151 ± 0.086
21 | QKTCLICGDEASGCHYGALTCGSCKVFFKRAAEGKQKYLCASRNDCTIDKFRRKLCPSCRLRKCYEAGMTLGARKL | -0.022 ± 0.054
22 | QKTCLICGDEASGCHYGALTCGSCKVFFKRAAEGKQKYLCASRNDCTIDKFRRKICPSCRLRKCYEAGMTLGARKL | -0.075 ± 0.073
23 | QKTCLICGDEASGCHYGALTCGSCKVFFKRAAEGKQKYLCASRNDCTIDKFRRKPCPSCRLRKCYEAGMTLGARKL | -0.099 ± 0.074
24 | QKTCLICGDEASGCHYGALTCGSCKVFFKRAAEGKQKYLCASRNDCTIDKFRRKWCPSCRLRKCYEAGMTLGARKL | -0.421 ± 0.28
25 | QKTCLICGDEASGCHYGALTCGSCKVFFKRAAEGKQKYLCASRNDCTIDKFRRKHCPSCRLRKCYEAGMTLGARKL | -0.011 ± 0.059
26 | QKTCLICGDEASGCHYGALTCGSCKVFFKRAAEGKQKYLCASRNDCTIDKFRRKACPSCRLRKCYEAGMTLGARKL | 0.089 ± 0.096
27 | QKTCLICGDEASGCHYGALTCGSCKVFFKRAAEGKQKYLCASRNDCTIDKFRRKYCPSCRLRKCYEAGMTLGARKL | -0.067 ± 0.063
28 | QKTCLICGDEASGCHYGALTCGSCKVFFKRAAEGKQKYLCASRNDCTIDKFRRKDCPSCRLRKCYEAGMTLGARKL | 0.032 ± 0.078
29 | QKTCLICGDEASGCHYGALTCGSCKVFFKRAAEGKQKYLCASRNDCTIDKFRRKQCPSCRLRKCYEAGMTLGARKL | -0.076 ± 0.081
30 | QKTCLICGDEASGCHYGALTCGSCKVFFKRAAEGKQKYLCASRNDCTIDKFRRKCCPSCRLRKCYEAGMTLGARKL | -0.075 ± 0.14
31 | QKTCLICGDEASGCHYGALTCGSCKVFFKRAAEGKQKYLCASRNDCTIDKFRRKECPSCRLRKCYEAGMTLGARKL | -0.407 ± 0.29
32 | QKTCLICGDEASGCHYGALTCGSCKVFFKRAAEGKQKYLCASRNDCTIDKFRRKRCPSCRLRKCYEAGMTLGARKL | -0.06 ± 0.068
33 | QKTCLICGDEASGCHYGALTCGSCKVFFKRAAEGKQKYLCASRNDCTIDKFRRKGCPSCRLRKCYEAGMTLGARKL | -0.073 ± 0.11
34 | QKTCLICGDEASGCHYGALTCGSCKVFFKRAAEGKQKYLCASRNDCTIDKFRRKKCPSCRLRKCYEAGMTLGARKL | 0.044 ± 0.077
35 | QKTCLICGDEASGCHYGALTCGSCKVFFKRAAEGKQKYLCASRNDCTIDKFRRKMCPSCRLRKCYEAGMTLGARKL | 0.216 ± 0.11
36 | QKTCLICGDEASGCHYGALTCGSCKVFFKRAAEGKQKYLCASRNDCTIDKFRRKTCPSCRLRKCYEAGMTLGARKL | -0.012 ± 0.065
